We go through eight molecules from PMC6156662 (Proceedings of the National Academy of Sciences of the …, 2018).

In assay [1] the test system is HCT116^δCHMP4C cells. As to the kind of experiment: Cell growth assay with aphidicolin. To be noted: 30 nM aphidicolin. The assay is classed as cell-based.
For assay [2], the system named is cells stably expressing HA-CHMP4C constructs, with siRNA. In words: Abscission checkpoint activation by drug. Format: cell-based.
The test system of assay [3] is HCT116^WT and HCT116^δCHMP4C cells. As to the kind of experiment: Cell-cycle arrest by flow cytometry, mitomycin C. Format: cell-based. The settings on record: 200 ng/mL mitomycin C, overnight. For orientation: Flow cytometry measures light scatter and fluorescence of single cells or particles in a stream.
The test system of assay [4] is HCT116 cells. As to the kind of experiment: Anaphase chromosome missegregation. Format: cell-based. To be noted: low-dose (0.1 μM) reversine, or p53 depletion by shRNA.
Assay [5] concerns HCT116^δCHMP4C cells. In words: Karyotyping, extreme aneuploidy in HCT116^δCHMP4C. The assay is classed as cell-based. The settings on record: 0.1 μM reversine; for protection against reversine-induced aneuploidy: reexpression in HCT116^δCHMP4C.
Assay [6] relates to HCT116^δCHMP4C cells. As to the kind of experiment: Cell growth assay with reversine, HCT116^δCHMP4C. Format: cell-based. The settings on record: 0.1 μM reversine.
The subject of assay [7] is HCT116^WT cells. The settings on record: 0.1 μM reversine, 48 h; <37 or >48 chromosomes; DMSO 1%.
Assay [8] concerns HCT116 cells. To be noted: 0.1 μM reversine, cells with defective abscission checkpoint.
Assay [9] has as its system HCT116^WT cells. The settings on record: 0.1 μM reversine, 7 d.
Assay [10] deals with HCT116^WT and HCT116^δCHMP4C cells. As to the kind of experiment: Mitotic arrest by flow cytometry and Western blotting, nocodazole. The assay is classed as cell-based. To be noted: 50 ng/mL nocodazole.
Assay [11] relates to full-length ALIX. As to the kind of experiment: Yeast two-hybrid β-galactosidase assay with ALIX. The settings on record: full-length CHMP4C, mean ± SD, n = 3.
Assay [12] deals with HeLa mCherry-tubulin cells. In words: Midbody abscission time, live-cell imaging. To be noted: siCHMP4C background.
The subject of assay [13] is midbody of HeLa cells. As to the kind of experiment: HA-CHMP4C midbody recruitment. To be noted: with or without nucleoporin depletion.
Assay [14] deals with HeLa cells stably expressing YFP-Lap2β. In words: Resolution time of YFP-Lap2β chromatin bridges, live-cell imaging. The settings on record: siCHMP4C, endogenous CHMP4C 685 min.
Assay [15] concerns HeLa cells. In words: Abscission checkpoint activity. The settings on record: siCHMP4C; Nup153/Nup50 partial depletion; midbody-arrested cells.
Assay [16] has as its system HCT116^δCHMP4C cells. In words: DNA damage: 53BP1 foci. The assay is classed as cell-based. The settings on record: reexpression in HCT116^δCHMP4C.
The subject of assay [17] is HCT116 cells. As to the kind of experiment: Cell growth assay after p53 depletion. The assay is classed as cell-based. To be noted: p53 shRNA.
[18] abbreviates: construct expressed in HCT116^δCHMP4C.

Regarding `C[C@@]1(CO)[C@H](O)CC[C@@]2(C)[C@H]1CC[C@H]1C[C@@H]3C[C@@]12CC[C@]3(O)CO` [aphidicolin, reference compound], in [1] (continuous), the “effect on proliferation” value is recorded as “reduced the proliferation of HCT116^δCHMP4C cells nearly twofold compared with HCT116^WT cells”. Also, the “activation of the abscission checkpoint” value in [2] (30 nM aphidicolin, 24 h (replication stress)) is “triggers the abscission checkpoint in a CHMP4C-dependent manner”.

For the molecule `CO[C@@]12[C@H](COC(N)=O)C3=C(C(=O)C(C)=C(N)C3=O)N1C[C@@H]1N[C@@H]12` [mitomycin C], in assay [3], the “G2/M cell-cycle arrest” value is “normal in HCT116^δCHMP4C cells”.

Take `c1nc2nc(Nc3ccc(N4CCOCC4)cc3)nc(NC3CCCCC3)c2[nH]1` [reversine]: the “anaphase chromosome missegregation” value in assay [4] was “doubled the frequency of anaphase chromosome missegregation”. Besides, the “cells with extreme aneuploidy” value turned out to be 23% in assay [5] (48 h, <37 or >48 chromosomes, DMSO 4%) and 7% in assay [7]. In addition, the “reduction of cell growth” value is on record as “at least 70%” in assay [6] (over 7-d period) and “reduced HCT116^WT cell growth only modestly” in assay [9]. Besides, the “activation of the abscission checkpoint” value in assay [2] (0.1 μM reversine, 24 h) was “activated the abscission checkpoint in a CHMP4C-dependent fashion”. Besides, the “micronuclei” value in assay [8] was “did display a higher proportion of micronuclei”. Moreover, the “multinucleation” value in assay [8] is “did not induce a multinucleation phenotype”.

On to `COC(=O)Nc1nc2cc(C(=O)c3cccs3)ccc2[nH]1` [nocodazole], for which the “mitotic / G2/M arrest” value in [10] is given as “did not observe a failure of HCT116^δCHMP4C cells to arrest”.

B1: A232T full-length CHMP4C (protein, UniProt Q96CF2 1-233, looked up, variant A232T)
chain: MSKLGKFFKGGGSSKSRAAPSPQEALVRLRETEEMLGKKQEYLENRIQREIALAKKHGTQNKRAALQALKRKKRFEKQLTQIDGTLSTIEFQREALENSHTNTEVLRNMGFAAKAMKSVHENMDLNKIDDLMQEITEQQDIAQEISEAFSQRVGFGDDFDEDELMAELEELEQEELNKKMTNIRLPNVPSSSLPAQPNRKPGMSSTARRSRAASSQRAEEEDDDIKQLAAWTT
modifications: full-length
Regarding B1, the “interaction with ALIX” value in assay [11] was “significantly reduced the interaction between full-length CHMP4C and ALIX”.

B2: HA-CHMP4C^T232: HA-CHMP4C full length siRNA-resistant T232 rs35094336 mutant (protein, UniProt Q96CF2 1-233, looked up, variant A232T)
chain: MSKLGKFFKGGGSSKSRAAPSPQEALVRLRETEEMLGKKQEYLENRIQREIALAKKHGTQNKRAALQALKRKKRFEKQLTQIDGTLSTIEFQREALENSHTNTEVLRNMGFAAKAMKSVHENMDLNKIDDLMQEITEQQDIAQEISEAFSQRVGFGDDFDEDELMAELEELEQEELNKKMTNIRLPNVPSSSLPAQPNRKPGMSSTARRSRAASSQRAEEEDDDIKQLAAWTT
modifications: full-length HA tag
In the case of B2, in assay [5], the “protection against reversine-induced aneuploidy” value is “but not HA-CHMP4C^T232, protected against reversine-induced increases in aneuploidy”. In addition, the “abscission rate under normal growth conditions” value in assay [12] is recorded as “proceeded through abscission more rapidly under normal growth conditions”. Also, in [13], the “recruitment to midbody” value is reported as “recruited to the midbody at normal levels”. Moreover, the “chromatin bridge resolution time, median” value in assay [14] was 200 min. Moreover, the “abscission checkpoint activity” value in assay [15] is “does not support the abscission checkpoint”.

B3: HA-CHMP4C^A232: HA-CHMP4C full length siRNA-resistant wild type, reference protein (protein, UniProt Q96CF2 1-233, looked up)
chain: MSKLGKFFKGGGSSKSRAAPSPQEALVRLRETEEMLGKKQEYLENRIQREIALAKKHGTQNKRAALQALKRKKRFEKQLTQIDGTLSTIEFQREALENSHTNTEVLRNMGFAAKAMKSVHENMDLNKIDDLMQEITEQQDIAQEISEAFSQRVGFGDDFDEDELMAELEELEQEELNKKMTNIRLPNVPSSSLPAQPNRKPGMSSTARRSRAASSQRAEEEDDDIKQLAAWAT
modifications: full-length HA tag
Turning to B3, in assay [16], the “DNA damage, 53BP1 foci” value was “reduced to control levels upon reexpression of HA-CHMP4C^A232”. Moreover, the “rescue of growth defect under aphidicolin” value in assay [1] (setting [18]) is “rescued by expression of HA-CHMP4C^A232”. Besides, in [5], the “protection against reversine-induced aneuploidy” value was “protected against reversine-induced increases in aneuploidy”. The “restoration of growth in presence of reversine” value in assay [6] (setting [18]) is “restored by the expression of HA-CHMP4C^A232”. The “growth after p53 depletion” value in [17] is listed as “reversed upon reexpression of CHMP4C^A232”. Besides, in assay [13], the “recruitment to midbody” value was “recruited to the midbody at normal levels”. In assay [14], the “chromatin bridge resolution time, median” value is 800 min. Further, the “abscission checkpoint activity” value in assay [15] was “checkpoint activity was rescued in cells that expressed HA-CHMP4C^A232”.

B4: L228A with W231A full-length CHMP4C (protein, UniProt Q96CF2 1-233, looked up, variant L228A W231A)
chain: MSKLGKFFKGGGSSKSRAAPSPQEALVRLRETEEMLGKKQEYLENRIQREIALAKKHGTQNKRAALQALKRKKRFEKQLTQIDGTLSTIEFQREALENSHTNTEVLRNMGFAAKAMKSVHENMDLNKIDDLMQEITEQQDIAQEISEAFSQRVGFGDDFDEDELMAELEELEQEELNKKMTNIRLPNVPSSSLPAQPNRKPGMSSTARRSRAASSQRAEEEDDDIKQAAAAAT
modifications: full-length
With B4, the “interaction with ALIX” value in [11] was “complete loss of ALIX binding”.
